Source: the supplement of paper PMC9732359
± gives the uncertainty stated by the source.

test: protein stability index of a GFP-peptide fusion (yeast GPS) (PSI 1-4); higher = more stable; sorted into four equal gates, so the index is relative within each strain; conditions: pdr5∆
In short: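 Tiled 17-residue peptides from yeast proteins were fused downstream of GFP on a plasmid that also expresses Cherry, and the pooled library was carried in yeast. Mid-log cultures grown in leucine-free medium were sorted into four equal gates by GFP/Cherry fluorescence ratio. Plasmids from each gate were PCR-amplified and Illumina-sequenced, and reads were assigned to strains by barcodes. Each peptide's protein stability index is the sum, over gates, of the gate's read frequency multiplied by its gate number.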

First: QKMAELEAARSEKQNDE [PRP8]
Second: QKNFMDQFQWILRKPGK [RRI2]
The protein stability index of the first is lower: 1.76 ± 0.085 for the first, 2.66 ± 0.12 for the second.

Going from QKQWDDIAFVLNNLPYK [YCS4] to QKYWESMRIQILRRQAI [GAL11], the protein stability index falls from 3.09 ± 0.082 to 2.25 ± 0.087.

Going from QLAQIRQFLKANKTNLI [YML103C/NUP188] to QLELRQLNASISLIPEL [RRI2], the protein stability index falls from 2.81 ± 0.068 to 2.58 ± 0.069.

First: QLETLTGSIRHRLKLCK [CSE2]
Second: QLFRTNKVQIMIATNVA [PRP28]
The protein stability index of the first is higher: 3.05 ± 0.17 for the first, 1.43 ± 0.064 for the second.

First: QLGYIENSFYKKEASKT [POP1]
Second: QLIGSNIELHSLYTSRE [PUP1]
The protein stability index of the first is lower: 2.43 ± 0.058 for the first, 3.33 ± 0.2 for the second.

First: QLIKVAVHNGGRKHVAA [RPL9A]
Second: QLKIQNRQAAASVVPSA [RPL12A]
The protein stability index of the first is higher: 2.85 ± 0.087 for the first, 2.48 ± 0.042 for the second.

Compared with QLKNVQLDSYLVNGFSQ [MED2], QLNASISLIPELSVVLS [RRI2] is higher in protein stability index: 2.68 ± 0.088 for the first, 2.96 ± 0.06 for the second.

Going from QLQQQPQMQCALQNLSQ [YGL172W/NUP49] to QLRKEIQLLDENVGTRL [MED11], the protein stability index rises from 2.06 ± 0.09 to 3.09 ± 0.19.

First: QLSNWQKIRNSEGISEA [ITC1]
Second: QLYFKKKVNYKVTSYDI [ISW2]
The protein stability index of the first is higher: 2.96 ± 0.083 for the first, 2.56 ± 0.052 for the second.

Going from QMLIQGVWDVDNPLRQI [BRR2] to QMQQQQQAQAQAQAQAQ [GAL11], the protein stability index falls from 3.26 ± 0.19 to 2.08 ± 0.053.

First: QNDILQESFINTMSAWV [FAS2]
Second: QNIAQSSNQSAPVETKK [HRT1]
The protein stability index of the first is lower: 2.54 ± 0.19 for the first, 2.91 ± 0.14 for the second.

First: QNNSTGSSSIIYYDSYI [SSN2]
Second: QNRPYNHPELQGITRNV [RPC17]
The protein stability index of the first is higher: 2.8 ± 0.1 for the first, 2.38 ± 0.078 for the second.

Going from QNSANNNSDDEDVDDEE [IRR1] to QNSLLTNTHPNFLSKIR [SNF2], the protein stability index falls from 3.22 ± 0.15 to 2.92 ± 0.075.

First: QPSQQPQQAQQQPNPLH [GAL11]
Second: QPVNFNRSWDHAYNITF [RPO31]
The protein stability index of the first is higher: 2.95 ± 0.037 for the first, 2.37 ± 0.055 for the second.

Compared with QQMHEVRKELRGRAVVL [RPP0], QQQQQFRHHVQIQQQQQ [SNF5] is lower in protein stability index: 3.05 ± 0.13 for the first, 1.76 ± 0.036 for the second.

Compared with QQQQQHQQQQQQQQQQQ [SNF5], QQQQQQQQQQQQQQQQH [GAL11] is lower in protein stability index: 2.89 ± 0.05 for the first, 2.8 ± 0.029 for the second.

Going from QQQQQQQQRRQLTPQQQ [GAL11] to QQQSSQNTVPNVLNQIN [GAL11], the protein stability index falls from 2.826 ± 0.025 to 1.82 ± 0.053.

Compared with QQRIVSAYEASMVYSNV [RRP4], QQSNKLHCCIQLLMGDI [RPN3] is lower in protein stability index: 2.62 ± 0.05 for the first, 1.99 ± 0.068 for the second.

QQTEHETEIKDLTQLLE [SMC4] and QRARDQDSIDISIKDNK [GAL11] are within error of each other in protein stability index: 3.26 ± 0.048 for the first, 3.12 ± 0.12 for the second.

Going from QRCKSNAISLQLKYDTS [YIL149C/MLP2] to QRDFRKHGAVHLSTYLK [RPL21A], the protein stability index rises from 1.66 ± 0.054 to 2.41 ± 0.042.

Compared with QREDKLKSHYYQTCKNS [SMC2], QREEAKKVVKKAFEERH [RPL27A] is higher in protein stability index: 1.25 ± 0.057 for the first, 3.78 ± 0.2 for the second.

QRETYDSNESDDDVTPS [YLR335W/NUP2] and QRITIPNVCNMKQYRDF [PRP28] are within error of each other in protein stability index: 2.43 ± 0.2 for the first, 2.55 ± 0.092 for the second.

QRKTVNSDDILSLHENY [POP1] and QRQKTYVERFETQLKVV [SMC1] are within error of each other in protein stability index: 2.65 ± 0.069 for the first, 2.51 ± 0.08 for the second.

QRRCLHCGALNGVVKKA [RPO31] and QRRSWRQYVGQLAPSSV [DIS3] are within error of each other in protein stability index: 2.54 ± 0.13 for the first, 2.45 ± 0.18 for the second.

First: QRRVLLSAPLSKELRAQ [RPL26A]
Second: QRTCLMTVTFLILAGQV [YCS4]
The protein stability index of the first is higher: 2.43 ± 0.078 for the first, 1.36 ± 0.05 for the second.

Going from QRYQDLSQQQKDAQKKD [YIL149C/MLP2] to QSFQNPFTASQSNINTN [YIL149C/MLP2], the protein stability index falls from 3.08 ± 0.062 to 2.55 ± 0.044.

Going from QSNINTNAPLRTLNIQP [YIL149C/MLP2] to QSRLMSTSYHLNSTLES [MED6], the protein stability index rises from 2.36 ± 0.09 to 2.79 ± 0.054.

QSSGKLKEYLDLVARTA [YDL116W/NUP84] and QSVEEKVLEMKNLKDTA [YIL149C/MLP2] are within error of each other in protein stability index: 2.88 ± 0.16 for the first, 2.58 ± 0.2 for the second.

Going from QTENDLKDIEARIKEKA [RPT1] to QTFGVDILAKLFSLEKP [SWI1], the protein stability index falls from 2.91 ± 0.11 to 2.52 ± 0.061.

QTGIFVYQNNITPSAMK [RPB5] and QTLLANSDHAKFTIEPG [SNF2] are within error of each other in protein stability index: 2.55 ± 0.16 for the first, 2.33 ± 0.065 for the second.

First: QTNIWEENWDDVEVDDD [SEM1]
Second: QTQQDLPKVRYNVEKVK [NSL1]
The protein stability index of the first is higher: 3.28 ± 0.09 for the first, 2.57 ± 0.063 for the second.

QTTEGYDPKDALKNACN [RPB11] and QVDKVTKEKVNGASVPI [RPL26A] are within error of each other in protein stability index: 3.28 ± 0.14 for the first, 3.3 ± 0.11 for the second.

Going from QVLKCKESWDPNTTKTK [YGR119C/NUP57] to QVLVCTATLAWGVNLPA [BRR2], the protein stability index falls from 3.41 ± 0.076 to 1.91 ± 0.088.

QVMEEKLDENNAQLSCI [PUP2] and QVPSSLIVRAKNHTHNL [RRP4] are within error of each other in protein stability index: 2.69 ± 0.27 for the first, 2.89 ± 0.06 for the second.

Going from QVRKKQIETINFLRLPA [YDL116W/NUP84] to QWFLQYQNQFVEFCRNI [YML103C/NUP188], the protein stability index falls from 2.89 ± 0.097 to 1.86 ± 0.12.

Going from QWGKYQTFGVDILAKLF [SWI1] to QYTKDEQFYTKDIIDPK [RPN2], the protein stability index rises from 2.54 ± 0.063 to 3.24 ± 0.094.

First: QYVTQIEQEKQEQQEQD [PRE6]
Second: QYYLSVLNQQLPIESQF [BRR2]
The protein stability index of the first is lower: 1.93 ± 0.057 for the first, 2.66 ± 0.059 for the second.

First: QYYVTQHDKMVDKIFEK [SWI1]
Second: RAASAKIESSVESQFSA [RPS8A]
The protein stability index of the first is lower: 2.42 ± 0.06 for the first, 3.31 ± 0.083 for the second.

Compared with RAEALNISGEFFRNKLK [RPL16B], RAGVCEYNEDSRLCTPI [RPN13] is lower in protein stability index: 2.4 ± 0.25 for the first, 1.86 ± 0.078 for the second.

Compared with RALRRALTKFEASQVTE [RPL35A], RANVYVGFLVQLDLTGI [PRP8] is lower in protein stability index: 2.56 ± 0.14 for the first, 2.13 ± 0.052 for the second.

Compared with RAQRVAEKRDALLKEDA [RPL19A], RARVTKDLVEIKKEEGK [RPN5] is higher in protein stability index: 3.04 ± 0.13 for the first, 3.42 ± 0.18 for the second.

RASKLKIQASDVNIIGK [RPO31] and RATPATLTELKDALSNS [SRB2] are within error of each other in protein stability index: 3.04 ± 0.17 for the first, 3.11 ± 0.11 for the second.

Going from RAVKEIKKFAKLHMGTD [RPL31A] to RAVKEIKKFAKLHMGTE [RPL31B], the protein stability index rises from 1.32 ± 0.041 to 2.94 ± 0.13.

Going from RAVLKSFLESVIRDSVT [HHF1] to RAYMRPLGVILTFVSVD [SCL1], the protein stability index falls from 2.44 ± 0.052 to 1.81 ± 0.044.

Going from RCFENLQNKSFKSVLPI [UBP6] to RCKIYFFYLRISKKLQF [PCI8], the protein stability index falls from 1.98 ± 0.09 to 1.31 ± 0.046.

Compared with RDEIAKNTELSYDFLPL [RPN12], RDHKSYSQSPPRSPGRS [SMC4] is higher in protein stability index: 2.23 ± 0.072 for the first, 2.98 ± 0.081 for the second.

Compared with RDLKPSNLEKLLFINSS [YML103C/NUP188], REASKDNVDFILSNVDL [RPB3] is higher in protein stability index: 1.91 ± 0.093 for the first, 3.3 ± 0.085 for the second.

REGSSARTIKATLPYIK [RPB2] and REIQTAVRLILPGELAK [HTB1] are within error of each other in protein stability index: 3.17 ± 0.077 for the first, 3.14 ± 0.06 for the second.

REKNSLESGKETALEFL [SMC4] and RELLKSQVEDFTRIFLP [SIR3] are within error of each other in protein stability index: 3.17 ± 0.11 for the first, 3.1 ± 0.059 for the second.

First: REMALCRELHNKHLTTL [SSN3]
Second: RENGKGGQIAHILFQNN [ROX3]
The protein stability index of the first is lower: 2.04 ± 0.041 for the first, 2.32 ± 0.06 for the second.

Compared with REPDFWVIRKQRRTNNS [MED6], REPRVVSALQMLKQHLF [PUP1] is lower in protein stability index: 3.29 ± 0.09 for the first, 3.05 ± 0.094 for the second.
